Reference: US20180021429A1, “ANTICANCER AGENTS OR ANTIMETASTATIC AGENTS USING FSTL1 AND COMBINATION DRUG THEREOF” (PHARMA FOODS INTERNATIONAL CO., LTD., priority 2015, published 2018)

What was measured:
[1] = test system: Panc1, Panc1-snail+, MIAPaCa, MDA231, Hs294T; assay: Proliferative capacity and invasive capacity of various human tumor cells; type: cell-based; conditions: particularly in highly metastatic tumor cell line highly expressing Snail
From the text: (§1) Specifically, the influence of the anti-FSTL1 antibody on proliferative capacity and invasive capacity was studied using various human tumor cells, regardless of the presence or absence of the expression of Snail or FSTL1. […] After culture for 3 days, the number of cells per culture system was counted to evaluate the proliferative capacity of the cells. […] Then, the number of cells that permeated the membranes was counted under a microscope to evaluate the invasive capacity of the cells.
as §1

[2] = test system: human pancreatic cancer cell line Panc1; assay: Action on Panc1 under FSTL1 stimulation (Example 26); type: cell-based; conditions: Panc1 stimulated with FSTL1 for 3 days, antibody 5 μg/ml; FIG. 114B
From the text: as §1
Next, in order to examine how surrounding tumor cells were changed in a cancer microenvironment by receiving FSTL1 produced by Snail/FSTL1-expressing cells, and how the anti-FSTL1 antibody acts thereon, a human pancreatic cancer cell line Panc1 confirmed to express Snail or FSTL1 only slightly was stimulated with FSTL1 for 3 days. The anti-FSTL1 antibody (#6-55, 5 μg/ml) or a control antibody (aHema, 5 μg/ml) was added to this culture system, and subsequent change in cell function was analyzed in the same way as in the preceding paragraph. […]

FSTL1 = molecular target: T1, FSTL1 (Homo sapiens, UniProt Q12841); assay: Action of anti-FSTL1 antibody on Panc1 under FSTL1 stimulation; type: cell-based; parameters: purchased R&D Systems, Inc. 1694-FN-050; conditions: Panc1 stimulated with FSTL1 for 3 days; antibody 5 μg/ml
T1 sequence (Q12841 21-308): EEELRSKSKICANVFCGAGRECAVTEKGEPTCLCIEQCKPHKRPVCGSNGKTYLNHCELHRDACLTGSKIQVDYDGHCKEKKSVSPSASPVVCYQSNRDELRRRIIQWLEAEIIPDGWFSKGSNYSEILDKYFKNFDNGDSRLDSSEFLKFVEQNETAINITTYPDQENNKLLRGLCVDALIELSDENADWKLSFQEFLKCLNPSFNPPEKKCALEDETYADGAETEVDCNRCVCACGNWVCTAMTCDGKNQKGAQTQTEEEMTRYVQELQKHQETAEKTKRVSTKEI
Description: Next, in order to examine how surrounding tumor cells were changed in a cancer microenvironment by receiving FSTL1 produced by Snail/FSTL1-expressing cells, and how the anti-FSTL1 antibody acts thereon, a human pancreatic cancer cell line Panc1 confirmed to express Snail or FSTL1 only slightly was stimulated with FSTL1 for 3 days. The anti-FSTL1 antibody (#6-55, 5 μg/ml) or a control antibody (aHema, 5 μg/ml) was added to this culture system, and subsequent change in cell function was analyzed in the same way as in the preceding paragraph. […] The paper also reports that FSTL1 enhances invasive capacity.

mouse melanoma B16-F10 = assay: Mouse melanoma B16-F10 model, subcutaneous and intravenous transplantation (Example 22); type: in vivo; conditions: intraperitoneal 10 mg/kg on days 3 and 6; FIG. 110
Description: The drug efficacy of the anti-FSTL1 antibody was evaluated according to Examples 17 to 20 using other cancer-bearing models of C57BL/6 mice of the same strain as in Snail-positive tumor bone metastasis models. The “mouse melanoma B16-F10” is a parent line of the cell line forced to express Snail, which was transplanted in the bone metastasis models used in the preceding tests.
1. Experiment Group (n=5) • 1. Mouse melanoma B16-F10+control IgG (anti-DNP mAb) • 2. Mouse melanoma B16-F10+anti-FSTL1 mAb (#6-55)
• Day 0: transplantation of tumor cells (1×10^6 cells subcutaneously & 1×10^6 cells intravenously) • Day 3: intraperitoneal administration of the antibody (first dose, corresponding to 200 μg/mouse=10 mg/kg) • Day 6: intraperitoneal administration of the antibody (second dose, corresponding to 200 μg/mouse=10 mg/kg) • Day 15 various immunological assays
• Effects on the growth of subcutaneous tumor (calculation of tumor volume by tumor size measurement): measured 6, 10, and 14 days after tumor implantation (FIG. 110A) • Effects on weight loss (FIG. 110B)

B1: #6-55: chicken-mouse chimeric anti-FSTL1 antibody clone; variable regions SEQ ID NO: 783 (light), 785 (heavy) (antibody, V domains shown)
VH: AVTLDESGGGLQTPGGALSLVCKGSGFTFTSVTMQWVRQAPGKGLEWVASVCSGSSTYYAPAVKGRATISRDNGQSTVRLQLSNLRPEDTGTYYCAKIAGRARWSCTSAAYNIDAWGHGTEVIVSS
VL: ASTQPSSVSAIPGETVKITCSGGGNNYGWYQQRSPGSAPVTVIYYNDNRPSNIPSRFSGSTSGSTSTLTITGVQADDEAIYYCGSWDSNTDSGIFGAGTTLTVL
modifications: mouse constant regions
- invasive capacity ([1]; Matrigel-coated transwell chamber, 4 hours): strongly suppressed
- proliferative capacity ([1]; antibody 5 μg/ml, 3 days): strongly suppressed
- cell growth [2]: reduced
- enhancement of invasive capacity by FSTL1 [2]: canceled
- cell growth (FSTL1): the cell growth was reduced
- invasive capacity enhanced by FSTL1 (FSTL1): the action thereof is canceled
- subcutaneous tumor growth (mouse melanoma B16-F10): strongly suppressed
- weight loss (mouse melanoma B16-F10): suppressive activity against weight loss was also exhibited
